Consider one substance from patent publication US20230303667A1.

Values joined by “and” are separate entries in the source; they are usually repeats but may differ in a detail not shown here. Equal values may be shown once.

The target in this test is Ebola virus Full length GP (Ebola virus (strain not stated)). Nature of the test: ELISA on Full length GP. For orientation: An ELISA detects its analyte on a solid surface through an enzyme-linked reagent.

A word on the EC50: it is the concentration at which the effect is half-maximal. Read a high EC50 as a less potent agent. Consider 13F6 (antibody), for which the EC50 was 0.004 µg/mL and 0.0027 nM.
